These results are taken from PMC12572175 (2025).

The target in the test is Protein A domain D (Staphylococcus aureus). The test is described as follows: BLI. (BLI is a label-free optical method that tracks binding on a fibre tip over time.)

B1: n501 T77A (antibody)
chain: EVQLVESGGGLVQPGGSLRLSCAASDFTFRNYEMSWVRQAPGKGLEWVSSISGSGGSTYYAHSLKGRFAISRDNSKNTLYLQMNSLRAEDTAIYYCARLRDGFNNGFDYWGQGTLVTVSS
As usually defined, the Kd is a measure of binding affinity in units of concentration. High values mean a looser complex, low ones a tighter complex. In turn, B1 had a Kd of 324 nM.

B2: n501 N92A (antibody)
chain: EVQLVESGGGLVQPGGSLRLSCAASDFTFRNYEMSWVRQAPGKGLEWVSSISGSGGSTYYAHSLKGRFTISRDNSKNTLYLQMASLRAEDTAIYYCARLRDGFNNGFDYWGQGTLVTVSS
Take B2: the Kd stood at 328 nM.
